Positions count from the first letter of the chain named. Numbers in names are those of the source.
B1: CASQ1 S248E (amino acids 35-396) (natural protein, human, UniProt P31415 35-396, looked up)
chain: QEGLDFPEYDGVDRVINVNAKNYKNVFKKYEVLALLYHEPPEDDKASQRQFEMEELILELAAQVLEDKGVGFGLVDSEKDAAVAKKLGLTEVDSMYVFKGDEVIEYDGEFSADTIVEFLLDVLEDPVELIEGERELQAFENIEDEIKLIGYFKSKDSEHYKAFEDAAEEFHPYIPFFATFDSKVAKKLTLKLNEIDFYEAFMEEPVTIPDKPNEEEEIVNFVEEHRRSTLRKLKPESMYETWEDDMDGIHIVAFAEEADPDGFEFLETLKAVAQDNTENPDLSIIWIDPDDFPLLVPYWEKTFDIDLSAPQIGVVNVTDADSVWMEMDDEEDLPSAEELEDWLEDVLEGEINTEDDDDDDDD
B2: CASQ1 S369E (amino acids 35-396) (natural protein, human, UniProt P31415 35-396, looked up)
chain: B1 chain with E214S, S335E
B3: CASQ1 S248/369E (amino acids 35-396) (natural protein, human, UniProt P31415 35-396, looked up)
chain: B1 chain with S335E

Key:
crystal structure = target: the molecule itself; test: crystal structure
turbidity assay = target: the molecule itself; test: turbidity assay

| Protein | stoichiometry N (crystal structure) | binding result (turbidity assay) |
| --- | --- | --- |
| B1 | 2 | – |
| B2 | – | binds |
| B3 | – | binds |
